# Tests used:
# [1] = target: T1, IdeR (Mycobacterium smegmatis) (UniProt A0QVZ3); experiment: EMSA
# T1 sequence: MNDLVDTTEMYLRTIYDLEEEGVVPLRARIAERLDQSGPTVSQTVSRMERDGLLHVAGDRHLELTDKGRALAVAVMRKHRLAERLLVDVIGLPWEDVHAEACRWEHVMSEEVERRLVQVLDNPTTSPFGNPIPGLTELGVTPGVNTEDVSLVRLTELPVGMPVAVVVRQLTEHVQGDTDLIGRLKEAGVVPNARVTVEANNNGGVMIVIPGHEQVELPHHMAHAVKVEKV
# [2] = target: T2, Zur (FurB) (Mycobacterium smegmatis) (UniProt A0R0S1); experiment: EMSA
# T2 sequence: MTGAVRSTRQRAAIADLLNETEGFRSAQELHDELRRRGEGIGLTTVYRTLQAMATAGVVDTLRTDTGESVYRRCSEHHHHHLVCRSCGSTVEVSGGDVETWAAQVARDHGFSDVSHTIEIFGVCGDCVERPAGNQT
sequence,measurement,setting,value
CGGGATCCCGCAACACCCTGGTCAGTGCCGCCCGCGTCTGACGGCGCACCGTTCGCGCTGCCGGCACCCCGGGCTCCATAATGAAAATCATGTTCAGTAAGCTACACTCTGCATATCGGGCTACCAACGAAATGGAGTATCGGTCATGATCTTGCCAGCCGTGCCTAAAAGCTTGGCCGCAGGGCCGAGTCGATTGGTCGCGGTCGCCTCGACAGTTAGCTTATGCAATGCTAACTTCGGGGCAAAGTTCAGGCGGATCGGCCGATGGCGGGCGTAGGTGAAGGAGACAGCGGGTACCCG (double strand) [rv0282 upstream region (pr1)],binding,[1],binds
same,binding,[2],binds

# From PMC2660348
